Usually Km stands for the substrate concentration at which the rate is half of its maximum. As usually defined, the Vmax is the rate approached at saturating substrate.

This is an account of results in paper PMC10071571, “Site‐directed mutagenesis improves the practical application of L‐glutamic acid decarboxylase in Escherichia coli” (Engineering in Life Sciences, 2023).

In one data set the target is T1, Gad B (Escherichia coli, UniProt P69910).
T1 construct: gene gadB; full length (1401 bp), pET-30a(+) His tag, expressed in E. coli BL21(DE3), Ni-NTA purified; about 53 kDa on SDS-PAGE; homo-hexamer
T1 sequence (P69910 1-466): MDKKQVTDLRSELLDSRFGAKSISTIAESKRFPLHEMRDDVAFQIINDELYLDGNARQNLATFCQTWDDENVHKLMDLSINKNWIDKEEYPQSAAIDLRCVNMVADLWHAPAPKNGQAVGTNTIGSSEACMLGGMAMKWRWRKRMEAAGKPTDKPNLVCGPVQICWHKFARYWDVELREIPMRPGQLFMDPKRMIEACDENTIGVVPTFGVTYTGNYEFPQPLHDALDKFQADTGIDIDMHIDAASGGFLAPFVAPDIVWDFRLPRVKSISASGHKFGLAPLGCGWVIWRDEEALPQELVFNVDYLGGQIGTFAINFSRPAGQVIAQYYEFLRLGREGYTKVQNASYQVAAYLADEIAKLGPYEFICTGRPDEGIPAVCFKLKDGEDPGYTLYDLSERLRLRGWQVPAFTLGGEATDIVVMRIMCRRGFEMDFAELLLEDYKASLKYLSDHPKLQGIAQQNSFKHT
In words: GABA formation at varied PLP concentration (HPLC). In kind it is biochemical. Conditions: coenzyme added to L-glutamate reaction; no constant.

In another data set the test system is T2, N[C@@H](CCC(=O)O)C(=O)O.
T2 construct: full length (1401 bp), pET-30a(+) His tag, expressed in E. coli BL21(DE3), Ni-NTA purified; about 53 kDa on SDS-PAGE; homo-hexamer
In words: HPLC of GABA formed; Lineweaver-Burk plot. In kind it is biochemical, Escherichia coli. The conditions noted are these: substrate buffer with 0.05 mM PLP, phosphate buffer, 30 min, pH and temperature of the kinetics not given (optimum pH 4.3, 37 °C). An excerpt:
(§1) HPLC of GABA formed; Lineweaver-Burk plot on Gad B

Substrate in data set [1]: N[C@@H](CCC(=O)O)C(=O)O
The data set is described as follows: HPLC of GABA formed; Lineweaver-Burk plot. The data set is classed as biochemical, Escherichia coli. The conditions noted are these: substrate buffer with 0.05 mM PLP, phosphate buffer, 30 min, pH and temperature of the kinetics not given (optimum pH 4.3, 37 °C).
Excerpt: as §1

As for `Cc1ncc(COP(=O)(O)O)c(C=O)c1O` [PLP], the “GABA formation at varied PLP concentration (HPLC)” value on Gad B is “enzyme activity of wild‐type Gad B and Gad B‐T62S mutants was highest when using the coenzyme PLP”.

Consider Gad B (Escherichia coli K-12; Q309A), for which, in the data set with N[C@@H](CCC(=O)O)C(=O)O, the Km was determined as 7.2 ± 3.8 mM and the Vmax stood at 87.3 µmol/min/mg.

In the case of Gad B (Escherichia coli K-12; T62S), in the data set on N[C@@H](CCC(=O)O)C(=O)O, the Michaelis constant (Km) is reported as 7.3 ± 2.5 mM and the Vmax was 76.1 µmol/min/mg.

B1: Gad B (Escherichia coli K-12) (protein)
chain: T1 sequence (P69910 1-466)
notes: full length (1401 bp), pET-30a(+) His tag, expressed in E. coli BL21(DE3), Ni-NTA purified; about 53 kDa on SDS-PAGE; homo-hexamer
Turning to B1, in data set [1], the Km is 11.3 ± 2.1 mM and the maximum rate (Vmax) is 32.1 µmol/min/mg.
